The target in one assay is rat anti hIL-10 mAb 12G8. Put plainly: competitive ECLA (IGEN): unlabeled IL-10 titrated against hIL-10-biotin for binding to rat 12G8.
The target in assay [1] is recombinant human IL-10 (human) (UniProt P22301).
The target is the same in assay [2]. Description: KinExA, mean (n). A general note: A kinetic exclusion assay measures how much of one partner remains free in solution.
Assay [3] has as its target T1, recombinant mouse IL-10 (mouse) (UniProt P18893).
T1 sequence: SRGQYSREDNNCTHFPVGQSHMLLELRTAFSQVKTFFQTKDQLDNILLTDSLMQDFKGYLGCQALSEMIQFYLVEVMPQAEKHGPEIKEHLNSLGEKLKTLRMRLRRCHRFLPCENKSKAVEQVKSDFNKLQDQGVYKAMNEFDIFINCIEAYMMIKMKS
Put plainly: Biacore, mean ± S.D. (n); format not described. (Surface plasmon resonance follows binding to a sensor surface in real time, without labels.)

For assay [4], the target named is recombinant human IL-10 (human) (UniProt P22301). Description: Biacore, mean ± S.D. (n); format not described.
The target in assay [5] is recombinant cyno IL-10 (cyno) (UniProt P79338). Put plainly: Biacore, mean ± S.D. (n); format not described.

This passage reports IC50, Bioassay IC50(pM) and Kd results from patent US20140112919A1.

Chain of recombinant cyno IL-10 (cyno) (P79338 19-178 limits assumed): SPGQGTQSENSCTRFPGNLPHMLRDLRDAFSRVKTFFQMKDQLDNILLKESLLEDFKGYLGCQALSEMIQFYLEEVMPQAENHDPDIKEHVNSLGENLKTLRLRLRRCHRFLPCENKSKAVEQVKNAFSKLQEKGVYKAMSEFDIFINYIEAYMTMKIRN

B1: recombinant mouse IL-10 (ligand)
chain: T1 sequence
For the molecule B1, the half-maximal inhibitory concentration (IC50) (commonly the concentration at which inhibition is half-maximal) with rat anti hIL-10 mAb 12G8 came to 37.9 nM.

B2: humanized anti-human IL-10 antibody SCH 708980 (12G8) (antibody, V domains shown)
VH: QVQLVESGGGVVQPGRSLRLSCAASGFTFSDYHMAWVRQAPGKGLEWVASITLDATYTYYRDSVRGRFTISRDNSKNTLYLQMNSLRAEDTAVYYCARHRGFSVWLDYWGQGTLVTVSS
VL: DIQMTQSPSSLSASVGDRVTITCKTSQNIFENLAWYQQKPGKAPKLLIYNASPLQAGVPSRFSGSGSGTDFTLTISSLQPEDFATYYCHQYYSGYTFGPGTKLELKR
As to B2, the Bioassay IC50(pM) in assay [1] was 93 pM.

B3: rat anti hIL-10 mAb 12G8 (antibody, from a related filing, V domains shown)
VH: EVQLVESGGGLVRPGGSLRLSCTASGFTFSDYHMAWVRQSPDKGLEWVASITLDATYTYYRDSVRGRFTISRNNAKTTLYLQMDSLRSEDTATFYCTRHRGFSVWLDYWGQGVMVTVSS
VL: DIQMTQSPSLLSASVGDRVTLNCKTSQNIFENLAWYQQKLREPPKLLIFNASPLQAGIPSRFSGSGSGTDFTLTITSLQPEDVATYFCHQYYSGYTFGPGTKLELKR
As for B3, the Kd (commonly the concentration at which binding is half-saturated) in assay [2] came out at 0.023 nM; in assay [3], 7.4 nM; in assay [4], 0.277 nM; in assay [5], 0.33 nM. The Bioassay IC50(pM) in assay [1] worked out at 66 pM.
